Residue numbers refer to the chain shown, from its start. Numbers in names are those of the source.
B1: mAb CD3 F2B (antibody, V domains shown)
VH: EVQLVESGGGLVQPGRSLRLSCAASGFTFDDYAMHWVRQAPGKGLEWVSGISWNSGSIGYADSVKGRFTISRDNAKNSLYLQMNSLRAEDTALYYCAKDSRGYGDYRLGGAYWGQGTLVTVSS
VL: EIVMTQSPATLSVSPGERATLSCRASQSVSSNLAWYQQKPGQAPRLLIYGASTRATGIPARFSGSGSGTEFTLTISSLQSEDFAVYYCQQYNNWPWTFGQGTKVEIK
notes: also called F2B antibody; mAb F2B
B2: SEQ ID NO 5 (antibody, V domains shown)
VH: B1 VH with R107S
VL: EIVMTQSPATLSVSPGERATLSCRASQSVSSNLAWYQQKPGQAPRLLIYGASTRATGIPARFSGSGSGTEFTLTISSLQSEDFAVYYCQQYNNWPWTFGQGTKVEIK
notes: also called family 2 anti-CD3 FlicAb
B3: SEQ ID NO 7 (antibody, V domains shown)
VH: B1 VH with D30N, D31N, A88G, R107S, L108R
VL: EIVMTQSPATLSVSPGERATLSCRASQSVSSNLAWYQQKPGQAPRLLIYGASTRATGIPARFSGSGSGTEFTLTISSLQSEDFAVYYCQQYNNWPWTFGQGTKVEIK
notes: as for B2
B4: SEQ ID NO 3 (antibody, V domains shown)
VH: B1 VH with N77K, R107S, L108R
VL: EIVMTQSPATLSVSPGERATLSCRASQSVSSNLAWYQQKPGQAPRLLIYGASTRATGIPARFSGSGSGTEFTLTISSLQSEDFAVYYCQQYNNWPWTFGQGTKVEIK
notes: as for B2
B5: SEQ ID NO 8 (antibody, V domains shown)
VH: B1 VH with R16G, D30A, R107S, L108R
VL: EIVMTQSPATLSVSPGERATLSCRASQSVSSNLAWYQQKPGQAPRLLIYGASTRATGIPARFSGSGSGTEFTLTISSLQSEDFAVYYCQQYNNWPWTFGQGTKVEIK
notes: as for B2
B6: SEQ ID NO 15 (antibody, V domains shown)
VH: B1 VH with D31N, N77K, R107S
VL: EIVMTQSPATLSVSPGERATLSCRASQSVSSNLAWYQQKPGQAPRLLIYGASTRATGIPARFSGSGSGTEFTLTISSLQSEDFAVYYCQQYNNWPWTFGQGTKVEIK
notes: as for B2
B7: SEQ ID NO 13 (antibody, V domains shown)
VH: B1 VH with D30H, D31N, R107S
VL: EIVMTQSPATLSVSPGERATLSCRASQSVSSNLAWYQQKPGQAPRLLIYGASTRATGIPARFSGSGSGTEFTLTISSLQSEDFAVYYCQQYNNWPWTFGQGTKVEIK
notes: as for B2
B8: SEQ ID NO 9 (antibody, V domains shown)
VH: B1 VH with D31N, N77K, R107S, L108R
VL: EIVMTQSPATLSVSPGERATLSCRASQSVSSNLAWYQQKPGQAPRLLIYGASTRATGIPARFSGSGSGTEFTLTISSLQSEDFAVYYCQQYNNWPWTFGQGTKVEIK
notes: as for B2
B9: SEQ ID NO 17 (antibody, V domains shown)
VH: B1 VH with A23E
VL: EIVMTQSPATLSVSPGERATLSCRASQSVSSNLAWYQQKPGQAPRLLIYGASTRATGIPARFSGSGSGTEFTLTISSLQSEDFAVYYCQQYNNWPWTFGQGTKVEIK
notes: as for B2
B10: SEQ ID NO 12 (antibody, V domains shown)
VH: B1 VH with A88P, D105S, R107S, L108R
VL: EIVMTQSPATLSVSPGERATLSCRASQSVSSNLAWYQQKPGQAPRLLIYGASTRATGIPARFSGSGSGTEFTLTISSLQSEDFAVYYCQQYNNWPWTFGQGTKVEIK
notes: as for B2
B11: SEQ ID NO 4 (antibody, V domains shown)
VH: B1 VH with A88P, R107S
VL: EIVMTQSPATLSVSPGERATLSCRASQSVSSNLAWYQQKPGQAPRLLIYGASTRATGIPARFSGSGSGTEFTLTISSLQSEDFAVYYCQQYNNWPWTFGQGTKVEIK
notes: as for B2
B12: SEQ ID NO 2 (antibody, V domains shown)
VH: B1 VH with Q13K, R16G
VL: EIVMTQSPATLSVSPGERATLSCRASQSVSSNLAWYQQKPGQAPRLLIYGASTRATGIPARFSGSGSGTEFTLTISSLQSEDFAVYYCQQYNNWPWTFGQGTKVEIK
notes: as for B2
B13: SEQ ID NO 11 (antibody, V domains shown)
VH: B1 VH with R107S, L108R
VL: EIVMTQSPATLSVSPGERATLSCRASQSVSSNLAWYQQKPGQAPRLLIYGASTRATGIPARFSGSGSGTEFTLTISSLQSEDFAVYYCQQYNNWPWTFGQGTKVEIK
notes: as for B2
B14: SEQ ID NO 10 (antibody, V domains shown)
VH: B1 VH with D31N, R107S, L108R
VL: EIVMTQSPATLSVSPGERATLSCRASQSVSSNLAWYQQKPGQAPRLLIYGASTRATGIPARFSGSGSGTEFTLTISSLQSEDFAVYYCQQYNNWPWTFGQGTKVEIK
notes: as for B2
B15: SEQ ID NO 18 (antibody, V domains shown)
VH: B1 VH with A88P
VL: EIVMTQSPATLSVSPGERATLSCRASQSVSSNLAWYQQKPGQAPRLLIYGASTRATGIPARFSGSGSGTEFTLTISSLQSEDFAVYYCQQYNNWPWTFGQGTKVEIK
notes: as for B2
B16: SEQ ID NO 6 (antibody, V domains shown)
VH: B1 VH with D30A, D31N, G59D, R107S, L108R
VL: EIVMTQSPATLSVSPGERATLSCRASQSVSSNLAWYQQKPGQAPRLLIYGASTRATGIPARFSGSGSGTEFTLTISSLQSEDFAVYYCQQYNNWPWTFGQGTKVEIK
notes: as for B2
B17: SEQ ID NO 16 (antibody, V domains shown)
VH: B1 VH with N77K
VL: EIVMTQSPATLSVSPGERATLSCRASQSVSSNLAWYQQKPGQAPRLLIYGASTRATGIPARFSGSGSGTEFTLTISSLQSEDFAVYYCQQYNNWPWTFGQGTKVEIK
notes: as for B2

Molecular target: T1, human CD3 (human, UniProt P07766 23-207; P04234 22-171)
T1 construct: also called CD3 on human T cells
T1 sequence (P07766 23-207 limits assumed, chain 1 of 2): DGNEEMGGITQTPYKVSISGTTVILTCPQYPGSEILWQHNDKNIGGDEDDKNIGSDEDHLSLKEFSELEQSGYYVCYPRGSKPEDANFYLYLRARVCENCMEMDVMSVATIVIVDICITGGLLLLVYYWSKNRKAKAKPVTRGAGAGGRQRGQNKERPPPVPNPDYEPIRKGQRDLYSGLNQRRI
T1 sequence (P04234 22-171 limits assumed, chain 2 of 2): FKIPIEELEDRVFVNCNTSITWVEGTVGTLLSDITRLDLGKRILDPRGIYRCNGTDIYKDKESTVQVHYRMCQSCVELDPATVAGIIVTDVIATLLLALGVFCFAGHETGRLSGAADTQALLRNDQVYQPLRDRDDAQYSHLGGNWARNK
Assay: flow cytometry on primary human T cells

| binding result | Binder |
| --- | --- |
| binds | B1 |
| binds | B2 |
| binds | B3 |
| binds | B4 |
| binds | B5 |
| binds | B6 |
| binds | B7 |
| binds | B8 |
| binds | B9 |
| binds | B10 |
| binds | B11 |
| binds | B12 |
| binds | B13 |
| binds | B14 |
| binds | B15 |
| binds | B16 |
| binds | B17 |

— US20250179180A1 (TENEOBIO, published 2025)
